# Experimental data: patent publication US20140120095A1 (Boehringer Ingelheim, published 2014)
# T1: recombinant human VEGF121 (human, UniProt P15692-9 27-147)
# T1 construct: also called rhVEGF121
# T1 sequence (looked up): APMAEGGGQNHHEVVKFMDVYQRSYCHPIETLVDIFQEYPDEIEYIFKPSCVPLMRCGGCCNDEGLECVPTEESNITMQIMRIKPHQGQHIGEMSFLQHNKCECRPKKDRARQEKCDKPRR
# T2: recombinant mouse VEGF164 (mouse, UniProt Q00731-2 27-190, biotinylated as the labelled ligand of the mVEGF164/mVEGFR2 AlphaScreen)
# T2 construct: also called mVEGF164; rmVEGF164
# T2 sequence (looked up): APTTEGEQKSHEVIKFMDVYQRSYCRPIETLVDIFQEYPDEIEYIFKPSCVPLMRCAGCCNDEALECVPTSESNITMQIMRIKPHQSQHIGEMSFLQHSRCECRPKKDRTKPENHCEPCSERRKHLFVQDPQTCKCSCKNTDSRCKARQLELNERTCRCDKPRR
# T3: VEGFD (UniProt O43915 93-201, limits assumed)
# T3 sequence (looked up): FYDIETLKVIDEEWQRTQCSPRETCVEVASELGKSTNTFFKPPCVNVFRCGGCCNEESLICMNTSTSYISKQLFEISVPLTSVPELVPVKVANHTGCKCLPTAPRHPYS
# T4: VEGFC (UniProt P49767 103-227, limits assumed)
# T4 sequence (looked up): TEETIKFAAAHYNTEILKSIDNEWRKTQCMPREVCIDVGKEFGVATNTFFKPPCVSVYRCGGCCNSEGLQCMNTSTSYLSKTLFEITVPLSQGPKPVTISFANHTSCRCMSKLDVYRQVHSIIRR
# T5: PIGF (UniProt P49763-2 21-149, limits assumed)
# T5 construct: also called placenta growth factor
# T5 sequence (looked up): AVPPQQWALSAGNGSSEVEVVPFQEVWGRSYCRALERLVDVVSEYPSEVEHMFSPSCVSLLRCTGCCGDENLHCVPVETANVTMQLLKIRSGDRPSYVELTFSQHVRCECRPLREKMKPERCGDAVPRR
# T6: VEGFB (UniProt P49765-2 22-188, limits assumed)
# T6 sequence (looked up): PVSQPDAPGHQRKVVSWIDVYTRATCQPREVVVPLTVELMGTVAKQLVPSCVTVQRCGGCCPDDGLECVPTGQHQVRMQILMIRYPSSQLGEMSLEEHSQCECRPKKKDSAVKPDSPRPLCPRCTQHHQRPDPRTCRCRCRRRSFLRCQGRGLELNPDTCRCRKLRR
# B1: DLLBII018 (VHH)
# VHH: EVQLVESGGGLVQPGGSLRLSCAASGRTFSSYAMAWYRQAPGKEREYVAAIRWSGGTAYYADSVKGRFTISRDNAKNTVYLQMNSLRPEDTAVYYCANRAPDTRLAPYEYDHWGQGTLVTVSS
# B2: VEGFBII022 (VHH, not shown: small tags and cut ends)
# chain: EVQLVESGGGLVQTGDSLRLSCEVSGRTFSSYSMGWFRQAQGKEREFVVAISKGGYKYDSVSLEGRFTISKDNAKNTVYLQINSLKPEDTAVYYCASSRAYGSSRLRLADTYEYWGQGTQVTVSSGGGGSGGGSEVQLVESGGGLVQPGGSLRLSCVASGIRFMSMAWYRQAPGKHRELVARISSGGTTAYVDSVKGRFTISRDNSKNTVYLQMNSLKAEDTAVYYCNTFSSRPNPWGAGTQVTVSS
# notes: Bivalent (heterodimeric) anti-VEGF VHH; also called VEGFBII23B04-9GS-5B05
# B3: VEGFBII010 (VHH)
# chain: EVQLVESGGGLVQTGDSLRLSCEVSGRTFSSYSMGWFRQAQGKEREFVVAISKGGYKYDSVSLEGRFTISKDNAKNTVYLQINSLKPEDTAVYYCASSRAYGSSRLRLADTYEYWGQGTQVTVSSGGGGSGGGGSGGGGSGGGGSGGGGSGGGGSGGGGSEVQLVESGGGLVQTGDSLRLSCEVSGRTFSSYSMGWFRQAQGKEREFVVAISKGGYKYDSVSLEGRFTISKDNAKNTVYLQINSLKPEDTAVYYCASSRAYGSSRLRLADTYEYWGQGTQVTVSS
# notes: homodimeric bivalent VHH; also called VEGFBII23B04-35GS-23B04
# B4: DLLBII101F01 (VHH)
# VHH: EVQLVESGGGLVQAGGSLRLSCAASGRTFSNYAMGWFRQAPGKEREFVAAISWSGGDTYYADSVKGRFTISRDNAKNTVCLQMNSLKPEDTAVYYCAASFQSGAAPGANFYDYWGQGTQVTVSS
# B5: recombinant human VEGF109 (ligand, UniProt P15692 207-315, looked up)
# chain: APMAEGGGQNHHEVVKFMDVYQRSYCHPIETLVDIFQEYPDEIEYIFKPSCVPLMRCGGCCNDEGLECVPTEESNITMQIMRIKPHQGQHIGEMSFLQHNKCECRPKKD
# notes: residue numbers count on GenBank AAM03108.1; also called rhVEGF109
# Tests used:
# [1] = molecular target: T7, human DLL4, full length, overexpressed on cells (human, UniProt Q9NR61 27-685); assay: FMAT, hNotch1-Fc on CHO-hDLL4, -HSA
# T7 construct: CHO cells in FMAT, HEK293 cells in the reporter assay; also called hDLL4; CHO-hDLL4
# [2] = molecular target: T8, mouse DLL4, full length, overexpressed on CHO cells (mouse, UniProt Q9JI71 27-686); assay: FMAT, hNotch1-Fc on CHO-mDLL4, -HSA
# T8 construct: whole, on cells; also called mDLL4; CHO-mDLL4
# T8 sequence (Q9JI71 27-686): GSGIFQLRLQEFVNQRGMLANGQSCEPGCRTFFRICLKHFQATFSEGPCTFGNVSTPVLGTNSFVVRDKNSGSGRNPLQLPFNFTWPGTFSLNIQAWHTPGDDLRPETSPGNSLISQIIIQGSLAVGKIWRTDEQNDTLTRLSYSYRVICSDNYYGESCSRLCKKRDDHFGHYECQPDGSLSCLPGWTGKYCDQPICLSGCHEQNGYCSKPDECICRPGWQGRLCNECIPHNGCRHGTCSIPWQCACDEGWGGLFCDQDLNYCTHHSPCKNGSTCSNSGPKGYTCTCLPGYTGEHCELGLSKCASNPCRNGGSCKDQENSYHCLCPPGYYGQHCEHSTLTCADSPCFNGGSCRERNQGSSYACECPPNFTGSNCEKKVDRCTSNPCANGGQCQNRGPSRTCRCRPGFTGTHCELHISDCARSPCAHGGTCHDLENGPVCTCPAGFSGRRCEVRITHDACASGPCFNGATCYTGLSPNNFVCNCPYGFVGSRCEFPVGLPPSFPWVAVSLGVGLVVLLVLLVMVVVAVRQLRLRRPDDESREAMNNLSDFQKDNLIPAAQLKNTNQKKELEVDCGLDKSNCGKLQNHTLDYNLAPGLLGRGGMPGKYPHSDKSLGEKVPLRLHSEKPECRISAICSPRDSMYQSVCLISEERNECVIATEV
# [3] = molecular target: T8, mouse DLL4, full length, overexpressed …; assay: FMAT, hNotch1-Fc on CHO-mDLL4, +25 uM HSA
# [4] = molecular target: T7, human DLL4, full length, overexpressed …; assay: FMAT, hNotch1-Fc on CHO-hDLL4, +25 uM HSA
# [5] = molecular target: T9, recombinant human VEGF165 (human, UniProt P15692-4 27-191, biotinylated in the competition assays); assay: AlphaScreen, hVEGF165/hVEGFR2-Fc competition, -HSA
# T9 construct: Bought protein; also called hVEGF165; rhVEGF165
# [6] = molecular target: T9, recombinant human VEGF165; assay: AlphaScreen, hVEGF165/hVEGFR1-Fc competition
# Procedure: (§1) Finally, streptavidin donor beads (20 μg/ml) are added and after 1 hour of incubation in the dark, fluorescence is measured on the Envision microplate reader.
# Target sequence in this assay (P15692 other isoform, or with tags, fused parts or gaps): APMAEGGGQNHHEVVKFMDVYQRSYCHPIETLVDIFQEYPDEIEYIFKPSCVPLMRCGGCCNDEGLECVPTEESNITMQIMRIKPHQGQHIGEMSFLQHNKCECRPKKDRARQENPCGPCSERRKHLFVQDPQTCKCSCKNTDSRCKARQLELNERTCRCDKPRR
# [7] = molecular target: T9, recombinant human VEGF165; assay: AlphaScreen, hVEGF165/hVEGFR2-Fc competition, +5 uM HSA
# [8] = molecular target: T9, recombinant human VEGF165; assay: AlphaScreen, hVEGF165/hVEGFR2-Fc competition, -HSA; remark: listed apart in the source
# [9] = molecular target: T9, recombinant human VEGF165; assay: binding ELISA, coated rhVEGF165
# Target sequence in this assay (P15692 other isoform, or with tags, fused parts or gaps): as above
# [10] = molecular target: T10, VEGF (used to stimulate HUVEC cells) (UniProt P15692-4 27-191, limits assumed); assay: cell-based or functional assay
# T10 sequence (P15692 other isoform, or with tags, fused parts or gaps limits assumed): as the sequence (P15692 other isoform, or with tags, fused parts or gaps) above
# [11] = molecular target: T9, recombinant human VEGF165; assay: ELISA, hVEGF165/hVEGFR1-Fc competition; design: % inhibition: concentration or dose not given beside the values
# Target sequence in this assay (P15692 other isoform, or with tags, fused parts or gaps): as above
# [12] = molecular target: T9, recombinant human VEGF165; assay: AlphaScreen, hVEGF165/hVEGFR1-Fc competition, -HSA
# [13] = molecular target: T9, recombinant human VEGF165; assay: SPR Biacore, immobilised hVEGF165, two state reaction model
# Target sequence in this assay (P15692 other isoform, or with tags, fused parts or gaps): as above
# [14] = molecular target: T1, recombinant human VEGF121; assay: binding ELISA, coated rhVEGF121
# Procedure: Binding to recombinant human VEGF121 is assessed via a solid phase binding ELISA. […] Wells are blocked with a casein solution (1% in PBS).
# [15] = molecular target: T2, recombinant mouse VEGF164; assay: AlphaScreen, mVEGF164/mVEGFR2-hFc competition
# Procedure: Finally, streptavidin donor beads (20 μg/ml) are added and after 1 hour of incubation fluorescence is measured on the Envision microplate reader.
# [16] = molecular target: T2, recombinant mouse VEGF164; assay: binding ELISA, coated rmVEGF164
# Procedure: Cross-reactivity to mouse VEGF164 is determined using a binding ELISA. […] Wells are blocked with a casein solution (1% in PBS). […] A mouse VEGF164 reactive mAb is included as positive control.
# [17] = molecular target: T9, recombinant human VEGF165; assay: AlphaScreen, hVEGF165/hVEGFR1-Fc competition; design: % inhibition: concentration or dose not given beside the values
# Procedure: as §1
# Target sequence in this assay (P15692 other isoform, or with tags, fused parts or gaps): as above
# [18] = molecular target: T10, VEGF (used to stimulate HUVEC cells); assay: cell-based or functional assay; remark: listed apart in the source
# [19] = molecular target: T9, recombinant human VEGF165; assay: ELISA, hVEGF165/hVEGFR2-Fc competition; design: % inhibition: concentration or dose not given beside the values
# [20] = molecular target: T9, recombinant human VEGF165; assay: AlphaScreen, hVEGF165/hVEGFR2-Fc competition; design: % inhibition: concentration or dose not given beside the values
# Procedure: as §1
# [21] = molecular target: T9, recombinant human VEGF165; assay: AlphaScreen, hVEGF165/hVEGFR2-Fc competition
# Procedure: as §1
# Target sequence in this assay (P15692 other isoform, or with tags, fused parts or gaps): as above
# [22] = molecular target: T3, VEGFD; assay: binding ELISA on coated VEGFD (Example 12.8), OD 450 nm
# Procedure: (§2) Binding to VEGFB, VEGFC, VEGFD and PIGF is assessed via a solid phase binding ELISA. […] Wells are blocked with a casein solution (1% in PBS). […] As positive controls serial dilutions of the appropriate receptors are taken along and detected with horseradish peroxidase (HRP)-conjugated goat anti-human IgG, Fc specific antibody (Jackson Immuno Research Laboratories Inc., West Grove, Pa., USA) and a subsequent enzymatic reaction in the presence of the substrate TMB (3,3′,5,5′-tetramentylbenzidine) (Pierce, Rockford, Ill., USA).
# [23] = molecular target: T4, VEGFC; assay: binding ELISA on coated VEGFC (Example 12.8), OD 450 nm
# Procedure: as §2
# [24] = molecular target: T5, PIGF; assay: solid phase binding ELISA on coated PIGF (Example 12.8)
# Procedure: as §2
# [25] = molecular target: T6, VEGFB; assay: binding ELISA on coated VEGFB (Example 12.8), OD 450 nm
# Procedure: as §2
# [26] = molecular target: T11, human DLL4 overexpressed on cells (human, UniProt Q9NR61 27-685); assay: FMAT, labelled hNotch1-Fc on CHO-hDLL4, periplasmic extract
# T11 construct: full length human DLL4 on CHO or HEK293 cells; also called CHO-hDLL4; CHO-hDII4
# From the text: (§3) All calculations are based on the FL1_total signal which comprises the average of the fluorescence per well times the number of counts per well.
# [27] = molecular target: T12, recombinant human DLL4 (human, UniProt Q9NR61 25-522); assay: Biacore off-rate, periplasmic extract; single VHH, not bracketed
# T12 construct: also called rhDLL4; hDLL4
# [28] = molecular target: T13, mouse DLL4 overexpressed on cells (mouse, UniProt Q9JI71 27-686); assay: FMAT, labelled hNotch1-Fc on CHO-mDLL4, periplasmic extract
# T13 construct: whole, on cells; also called CHO-mDLL4; CHO-mDII4
# T13 sequence (Q9JI71 27-686): as the sequence (Q9JI71 27-686) above
# From the text: as §3
# [29] = molecular target: T14, human VEGFR2-Fc chimera (human, UniProt P35968 20-764); assay: ELISA, coated VEGF109
# T14 construct: also called hVEGFR2-Fc; VEGFR2-huFc; not shown: human Fc part of the bought chimera; not described
# T14 sequence (P35968 20-764, change not shown): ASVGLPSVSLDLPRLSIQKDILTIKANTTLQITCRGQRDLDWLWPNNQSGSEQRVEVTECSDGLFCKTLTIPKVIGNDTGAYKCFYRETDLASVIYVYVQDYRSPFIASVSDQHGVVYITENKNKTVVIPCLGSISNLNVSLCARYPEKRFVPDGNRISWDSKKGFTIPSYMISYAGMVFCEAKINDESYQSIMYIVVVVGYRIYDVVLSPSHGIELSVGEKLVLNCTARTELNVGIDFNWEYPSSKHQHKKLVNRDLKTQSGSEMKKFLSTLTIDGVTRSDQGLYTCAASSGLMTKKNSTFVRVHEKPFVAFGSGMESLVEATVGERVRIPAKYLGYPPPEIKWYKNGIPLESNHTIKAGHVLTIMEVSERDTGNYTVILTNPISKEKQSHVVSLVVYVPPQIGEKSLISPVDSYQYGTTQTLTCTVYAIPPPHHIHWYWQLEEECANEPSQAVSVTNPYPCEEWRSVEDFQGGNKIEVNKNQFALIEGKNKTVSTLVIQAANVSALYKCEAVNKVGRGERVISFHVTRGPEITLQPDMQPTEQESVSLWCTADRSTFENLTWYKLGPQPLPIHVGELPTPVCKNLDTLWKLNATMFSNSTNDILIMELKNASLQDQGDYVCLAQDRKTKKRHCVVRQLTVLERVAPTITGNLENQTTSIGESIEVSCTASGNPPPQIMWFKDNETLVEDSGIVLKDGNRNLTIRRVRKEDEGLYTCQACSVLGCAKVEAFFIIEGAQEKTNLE
# Procedure: Cells are harvested by centrifugation and lysed by sonication of the cell pellet. Inclusion bodies are isolated by centrifugation. […] The refolded protein is purified by ion exchange chromatography using a MonoQ5/50GL (Amersham BioSciences) column followed by gel filtration with a Superdex75 10/300 GL column (Amersheim BioSciences). […] To this end, 1 μg/mL of recombinant human VEGF109 is immobilized overnight at 4° C. in a 96-well MaxiSorp plate (Nunc, Wiesbaden, Germany). Wells are blocked with a casein solution (1%).
binder,measurement,setting,value
B1,% inh,[1],87%
same,IC50,[1],5.5 nM
same,% inh,[2],99%
same,IC50,[2],2.4 nM
same,IC50,[3],2.8 nM
same,IC50,[4],7.1 nM
B2,% inh,[5],100%
same,IC50,[5],0.05 nM
same,% inhibition,[6],100%
same,IC50,[6],0.008 nM
same,IC50,[7],0.03 nM
same,% inh,[8],100%
same,IC50,[8],0.017 nM
same,EC50,[9],0.224 nM
same,"% inhibition, VEGF HUVEC proliferation assay",[10],100%
same,"IC50, VEGF HUVEC proliferation assay",[10],0.34 nM
same,% inhibition,[11],89%
same,IC50,[11],0.225 nM
same,% inh,[12],87%
same,IC50,[12],0.07 nM
same,Kd,[13],0.14 nM
same,ka1,[13],1.2e+06 M⁻¹ s⁻¹
same,ka2,[13],0.014 s⁻¹
same,kd1,[13],0.0091 s⁻¹
same,kd2,[13],0.00026 s⁻¹
same,EC50,[14],0.54 nM
same,IC50,[15],108 nM
same,EC50,[16],0.464 nM
same,% inhibition,[17],98%
same,IC50,[17],0.009 nM
same,"% inhibition, VEGF HUVEC Erk phosphorylation assay",[18],94%
same,"IC50, VEGF HUVEC Erk phosphorylation assay",[18],0.18 nM
same,% inhibition,[19],100%
same,IC50,[19],0.164 nM
same,% inhibition,[20],100%
same,IC50,[20],0.007 nM
same,IC50,[21],0.007 nM
B3,binding result,[22],no binding (tested: 5e-7 M)
same,binding result,[23],no binding (tested: 5e-7 M)
same,binding result,[24],no binding (tested: about 5e-7 M)
same,binding result,[25],no binding (tested: 5e-7 M)
B4,% inh,[26],85%
same,koff,[27],0.02 s⁻¹
same,% inh,[28],78%
B5,binding result,[29],binds
